Results published in article PMC3173395, “Characterization of the latent membrane protein 1 signaling complex of Epstein-Barr virus in the membrane of mammalian cells with bimolecular fluorescence complementation” (Virology Journal, 2011).

Target: T1, A5-Y384G-NYFP (full-length LMP1 with mutations in CTAR1 and CTAR2, NYFP at the C-terminus) (Epstein-Barr virus, B95-8 strain, UniProt P03230 1-386, amino acids 204-208 PQQAT mutated to AAAAA | Y384G)
T1 sequence: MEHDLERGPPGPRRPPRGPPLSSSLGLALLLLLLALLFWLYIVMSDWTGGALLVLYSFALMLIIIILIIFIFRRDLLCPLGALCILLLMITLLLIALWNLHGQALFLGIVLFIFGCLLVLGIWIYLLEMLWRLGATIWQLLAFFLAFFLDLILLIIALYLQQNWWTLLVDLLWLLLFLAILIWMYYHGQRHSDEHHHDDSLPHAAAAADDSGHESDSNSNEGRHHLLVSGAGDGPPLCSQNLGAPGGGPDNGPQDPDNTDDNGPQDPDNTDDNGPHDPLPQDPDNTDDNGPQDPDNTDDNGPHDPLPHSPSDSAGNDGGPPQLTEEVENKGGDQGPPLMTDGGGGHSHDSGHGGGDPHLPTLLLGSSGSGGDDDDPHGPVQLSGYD
Assay: cell-based or functional assay

B1: CYFP-TRAF2 (CYFP fused to the amino-terminus of TRAF2, amino acids 98-501) (domain or fragment)
chain: REVESLPAVCPSDGCTWKGTLKEYESCHEGRCPLMLTECPACKGLVRLGEKERHLEHECPERSLSCRHCRAPCCGADVKAHHEVCPKFPLTCDGCGKKKIPREKFQDHVKTCGKCRVPCRFHAIGCLETVEGEKQQEHEVQWLREHLAMLLSSVLEAKPLLGDQSHAGSELLQRCESLEKKTATFENIVCVLNREVERVAMTAEACSRQHRLDQDKIEALSSKVQQLERSIGLKDLAMADLEQKVLEMEASTYDGVFIWKISDFARKRQEAVAGRIPAIFSPAFYTSRYGYKMCLRIYLNGDGTGRGTHLSLFFVVMKGPNDALLRWPFNQKVTLMLLDQNNREHVIDAFRPDVTSSSFQRPVNDMNIASGCPLFCPVSKMEAKNSYVRDDAIFIKAIVDLTGL
Question: Which “NF-kB luciferase reporter activity in HEK-293T cells transfected with A5-Y384G-NYFP + A5-Y384G-CYFP (A5-Y384G BiFC), fold above vector; about 50% of LMP1 and LMP1-BiFC” value does the source give for B1 here?
Answer: ~22 fold
